{
  "source": "IntAct's records for PubMed 19196961",
  "parents": {"B1": {"name": "E3 ubiquitin-protein ligase CHIP (Homo sapiens), Q9UNE7-1 (parent)", "chain": "MKGKEEKEGGARLGAGGGSPEKSPSAQELKEQGNRLFVGRKYPEAAACYGRAITRNPLVAVYYTNRALCYLKMQQHEQALADCRRALELDGQSVKAHFFLGQCQLEMESYDEAIANLQRAYSLAKEQRLNFGDDIPSALRIAKKKRWNSIEERRIHQESELHSYLSRLIAAERERELEECQRNHEGDEDDSHVRAQQACIEAKHDKYMADMDELFSQVDEKRKKRDIPDYLCGKISFELMREPCITPSGITYDRKDIEEHLQRVGHFDPVTRSPLTQEQLIPNLAMKEVIDAFISENGWVEDY"}},
  "data": [
    {"variants_of": "B1", "settings": "with lrrk2_human LRRK2, Q5S007", "values": [
      {"variant": "K30C", "effect of a mutation on the interaction": "disrupting interaction"}
    ]}
  ]
}
